Data as given in the supplement of paper PMC10065799, “High-throughput profiling of sequence recognition by tyrosine kinases and SH2 domains using bacterial peptide display” (eLife, 2023).

Assays:
c-Src = experiment: phosphorylation enrichment, bacterial display (enrichment ratio); higher = better substrate or ligand; peptides without Tyr show the background
AncSZ = experiment: as above
MERTK = MERTK (UniProt Q12866); experiment: as above
FGFR3 = FGFR3 (UniProt P22607); experiment: as above
Fer (mouse) = experiment: as above
c-Abl (mouse) = experiment: as above
EPHB2 = EPHB2 (UniProt P29323); experiment: as above
Fes = Fes (UniProt P07332); experiment: as above
Hck = Hck (UniProt P08631); experiment: as above
Jak2 = Jak2 (UniProt O60674); experiment: as above
EPHB1 = EPHB1 (UniProt P54762); experiment: as above
FGFR1 = FGFR1 (UniProt P11362); experiment: as above
Fyn = Fyn (UniProt P06241); experiment: as above
SHP2-C SH2 = experiment: SH2 binding enrichment of the phosphorylated peptide, bacterial display (enrichment ratio); higher = better substrate or ligand; peptides without Tyr show the background
Grb2 SH2 = Grb2 SH2 (UniProt P62993); experiment: as above
c-Src SH2 = experiment: as above
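Throughout, for SH2 binding enrichment of the phosphorylated peptide, bacterial display: peptide library displayed on the E. coli surface as eCPX fusions, selected cells deep-sequenced, score is each peptide's frequency after selection divided by its frequency in the input.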
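Throughout, for phosphorylation enrichment, bacterial display: 11-residue human phosphosite peptides and single-mutation variants displayed on the E. coli surface, counted by deep sequencing, each peptide's frequency after selection divided by its frequency in the unselected input library; frequency after pTyr selection over input frequency; kinase dosed for 20-30% of maximal phosphorylation in three min.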

EPHB2, sequence (P29323 whole entry, looked up): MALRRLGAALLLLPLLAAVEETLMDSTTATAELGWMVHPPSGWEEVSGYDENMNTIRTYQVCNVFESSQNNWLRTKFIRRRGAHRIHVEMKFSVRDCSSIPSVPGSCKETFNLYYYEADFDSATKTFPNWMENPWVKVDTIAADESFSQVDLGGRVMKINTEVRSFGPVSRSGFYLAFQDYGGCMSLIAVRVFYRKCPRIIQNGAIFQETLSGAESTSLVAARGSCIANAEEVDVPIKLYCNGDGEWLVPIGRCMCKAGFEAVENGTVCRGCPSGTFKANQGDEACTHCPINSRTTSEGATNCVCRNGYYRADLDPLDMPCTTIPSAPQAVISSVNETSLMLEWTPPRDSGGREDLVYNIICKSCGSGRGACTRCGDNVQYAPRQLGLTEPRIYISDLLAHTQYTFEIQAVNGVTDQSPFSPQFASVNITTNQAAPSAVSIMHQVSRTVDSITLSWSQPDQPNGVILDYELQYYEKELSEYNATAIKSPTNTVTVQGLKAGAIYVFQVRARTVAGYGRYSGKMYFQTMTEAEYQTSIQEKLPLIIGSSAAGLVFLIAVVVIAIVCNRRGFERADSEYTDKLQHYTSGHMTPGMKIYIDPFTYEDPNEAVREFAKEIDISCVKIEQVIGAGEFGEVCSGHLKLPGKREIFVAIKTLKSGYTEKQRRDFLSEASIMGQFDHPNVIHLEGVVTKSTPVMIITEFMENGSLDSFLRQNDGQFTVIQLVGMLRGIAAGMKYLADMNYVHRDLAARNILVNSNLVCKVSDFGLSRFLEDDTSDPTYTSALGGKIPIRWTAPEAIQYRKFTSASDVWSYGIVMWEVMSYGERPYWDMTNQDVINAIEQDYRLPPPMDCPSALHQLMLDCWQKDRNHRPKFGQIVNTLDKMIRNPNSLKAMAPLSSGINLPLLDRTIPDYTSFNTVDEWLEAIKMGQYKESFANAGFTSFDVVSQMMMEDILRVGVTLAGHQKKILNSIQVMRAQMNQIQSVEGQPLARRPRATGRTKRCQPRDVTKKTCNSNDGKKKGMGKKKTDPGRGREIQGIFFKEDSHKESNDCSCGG
Fes, sequence (P07332 whole entry, looked up): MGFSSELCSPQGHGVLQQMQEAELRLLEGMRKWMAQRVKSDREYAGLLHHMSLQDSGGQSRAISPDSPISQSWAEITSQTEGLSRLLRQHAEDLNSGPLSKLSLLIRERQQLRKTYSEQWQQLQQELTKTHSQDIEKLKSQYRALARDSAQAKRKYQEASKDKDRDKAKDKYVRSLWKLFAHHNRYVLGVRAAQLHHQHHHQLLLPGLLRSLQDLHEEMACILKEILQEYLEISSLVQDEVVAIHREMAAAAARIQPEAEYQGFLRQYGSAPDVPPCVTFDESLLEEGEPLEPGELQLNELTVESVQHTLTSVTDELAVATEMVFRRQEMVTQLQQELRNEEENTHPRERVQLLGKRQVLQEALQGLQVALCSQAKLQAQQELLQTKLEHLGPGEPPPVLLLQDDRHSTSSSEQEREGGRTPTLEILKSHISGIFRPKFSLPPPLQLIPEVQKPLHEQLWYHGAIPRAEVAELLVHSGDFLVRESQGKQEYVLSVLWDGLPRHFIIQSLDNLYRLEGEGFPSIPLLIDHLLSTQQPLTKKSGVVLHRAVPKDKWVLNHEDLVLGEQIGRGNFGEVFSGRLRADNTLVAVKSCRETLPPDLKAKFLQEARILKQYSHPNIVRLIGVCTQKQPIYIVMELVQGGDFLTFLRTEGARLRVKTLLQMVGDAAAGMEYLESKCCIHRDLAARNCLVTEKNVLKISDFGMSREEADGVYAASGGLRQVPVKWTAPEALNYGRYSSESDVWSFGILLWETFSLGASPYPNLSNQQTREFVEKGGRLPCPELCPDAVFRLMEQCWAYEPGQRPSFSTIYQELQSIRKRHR
Fyn, sequence (P06241 whole entry, looked up): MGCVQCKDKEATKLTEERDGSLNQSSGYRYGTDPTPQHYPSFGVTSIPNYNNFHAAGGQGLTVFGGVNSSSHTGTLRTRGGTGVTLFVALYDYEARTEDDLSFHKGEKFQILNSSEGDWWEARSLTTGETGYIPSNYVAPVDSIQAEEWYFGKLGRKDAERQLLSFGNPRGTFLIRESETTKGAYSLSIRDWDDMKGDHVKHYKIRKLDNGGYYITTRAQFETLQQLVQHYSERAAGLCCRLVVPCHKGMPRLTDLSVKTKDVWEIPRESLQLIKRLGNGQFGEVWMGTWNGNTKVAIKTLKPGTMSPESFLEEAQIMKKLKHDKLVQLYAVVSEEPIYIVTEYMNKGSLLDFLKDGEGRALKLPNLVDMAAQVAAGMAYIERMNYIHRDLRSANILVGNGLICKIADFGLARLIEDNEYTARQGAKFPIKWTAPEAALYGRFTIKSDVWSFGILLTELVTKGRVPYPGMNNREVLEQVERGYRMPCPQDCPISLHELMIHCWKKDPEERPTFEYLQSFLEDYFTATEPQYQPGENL
Jak2, sequence (O60674 whole entry, looked up): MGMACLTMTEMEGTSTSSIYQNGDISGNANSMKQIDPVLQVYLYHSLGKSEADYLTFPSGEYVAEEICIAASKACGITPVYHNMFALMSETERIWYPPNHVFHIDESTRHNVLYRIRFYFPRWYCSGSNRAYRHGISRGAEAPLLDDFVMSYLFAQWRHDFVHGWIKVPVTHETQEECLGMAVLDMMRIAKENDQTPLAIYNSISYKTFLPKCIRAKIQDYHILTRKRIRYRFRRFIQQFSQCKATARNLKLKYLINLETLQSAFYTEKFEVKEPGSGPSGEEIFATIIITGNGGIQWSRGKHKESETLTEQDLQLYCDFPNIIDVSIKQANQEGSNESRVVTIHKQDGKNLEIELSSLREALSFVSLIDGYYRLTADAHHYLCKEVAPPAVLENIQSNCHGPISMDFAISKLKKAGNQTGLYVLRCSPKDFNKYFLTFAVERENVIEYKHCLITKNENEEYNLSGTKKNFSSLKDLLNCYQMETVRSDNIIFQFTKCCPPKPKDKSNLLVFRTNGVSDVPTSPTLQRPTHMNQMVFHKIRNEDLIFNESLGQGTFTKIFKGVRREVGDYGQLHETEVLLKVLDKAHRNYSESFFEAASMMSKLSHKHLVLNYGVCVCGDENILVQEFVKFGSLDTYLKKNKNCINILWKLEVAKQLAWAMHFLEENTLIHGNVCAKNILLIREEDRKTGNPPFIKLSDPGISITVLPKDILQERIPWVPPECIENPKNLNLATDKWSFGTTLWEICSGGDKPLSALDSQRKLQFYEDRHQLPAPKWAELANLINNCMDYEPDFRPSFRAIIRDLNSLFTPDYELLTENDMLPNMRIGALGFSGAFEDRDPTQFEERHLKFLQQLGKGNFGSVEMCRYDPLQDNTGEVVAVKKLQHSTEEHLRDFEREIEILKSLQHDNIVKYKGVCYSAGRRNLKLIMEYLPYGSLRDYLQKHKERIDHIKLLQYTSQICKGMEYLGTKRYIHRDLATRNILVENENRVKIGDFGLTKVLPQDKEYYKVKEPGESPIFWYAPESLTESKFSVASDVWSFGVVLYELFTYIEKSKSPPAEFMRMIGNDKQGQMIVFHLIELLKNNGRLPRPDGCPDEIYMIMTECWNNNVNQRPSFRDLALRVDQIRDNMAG
EPHB1, sequence (P54762 whole entry, looked up): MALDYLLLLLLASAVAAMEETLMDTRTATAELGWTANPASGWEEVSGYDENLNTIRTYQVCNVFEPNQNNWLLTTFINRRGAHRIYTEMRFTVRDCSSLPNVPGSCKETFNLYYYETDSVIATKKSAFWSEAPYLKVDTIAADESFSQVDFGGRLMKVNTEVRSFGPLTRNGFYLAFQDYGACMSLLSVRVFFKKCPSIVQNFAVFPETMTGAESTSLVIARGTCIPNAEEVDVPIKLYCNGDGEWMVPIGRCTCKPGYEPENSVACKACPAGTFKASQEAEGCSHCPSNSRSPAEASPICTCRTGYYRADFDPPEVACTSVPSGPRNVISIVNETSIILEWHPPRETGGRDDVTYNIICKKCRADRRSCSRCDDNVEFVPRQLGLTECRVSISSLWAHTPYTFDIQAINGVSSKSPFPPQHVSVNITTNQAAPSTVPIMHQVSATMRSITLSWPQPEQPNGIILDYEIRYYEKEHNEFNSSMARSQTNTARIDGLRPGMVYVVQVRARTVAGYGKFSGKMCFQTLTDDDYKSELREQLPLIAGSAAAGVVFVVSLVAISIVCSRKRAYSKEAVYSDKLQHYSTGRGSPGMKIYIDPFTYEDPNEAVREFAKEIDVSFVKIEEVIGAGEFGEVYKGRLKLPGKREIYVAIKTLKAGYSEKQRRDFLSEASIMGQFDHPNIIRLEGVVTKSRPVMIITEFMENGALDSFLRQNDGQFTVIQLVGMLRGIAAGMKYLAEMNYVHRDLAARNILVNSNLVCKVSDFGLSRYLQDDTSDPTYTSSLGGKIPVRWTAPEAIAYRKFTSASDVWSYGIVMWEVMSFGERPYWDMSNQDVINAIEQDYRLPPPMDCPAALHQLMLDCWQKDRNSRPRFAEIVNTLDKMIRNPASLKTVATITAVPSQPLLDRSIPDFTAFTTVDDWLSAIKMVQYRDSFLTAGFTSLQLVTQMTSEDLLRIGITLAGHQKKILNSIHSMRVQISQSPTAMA
Hck, sequence (P08631 whole entry, looked up): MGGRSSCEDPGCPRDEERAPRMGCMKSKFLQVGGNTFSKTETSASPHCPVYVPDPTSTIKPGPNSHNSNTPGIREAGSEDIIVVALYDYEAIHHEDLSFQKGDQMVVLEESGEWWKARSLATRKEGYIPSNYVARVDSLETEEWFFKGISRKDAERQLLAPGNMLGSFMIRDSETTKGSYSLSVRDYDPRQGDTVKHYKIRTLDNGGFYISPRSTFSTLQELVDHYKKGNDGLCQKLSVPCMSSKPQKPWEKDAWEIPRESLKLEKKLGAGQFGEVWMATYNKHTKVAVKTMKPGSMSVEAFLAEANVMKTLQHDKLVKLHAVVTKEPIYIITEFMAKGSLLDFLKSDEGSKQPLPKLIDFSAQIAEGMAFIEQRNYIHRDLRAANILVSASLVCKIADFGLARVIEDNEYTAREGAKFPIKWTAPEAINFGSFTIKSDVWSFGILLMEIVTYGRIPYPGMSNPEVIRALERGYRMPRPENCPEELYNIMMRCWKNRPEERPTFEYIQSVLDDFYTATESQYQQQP

Row | Sequence | SH2 binding enrichment (SHP2-C SH2) | SH2 binding enrichment (Grb2 SH2) | SH2 binding enrichment (c-Src SH2) | phosphorylation enrichment (c-Src) | phosphorylation enrichment (AncSZ) | phosphorylation enrichment (MERTK) | phosphorylation enrichment (FGFR3) | phosphorylation enrichment (Fer (mouse)) | phosphorylation enrichment (c-Abl (mouse)) | phosphorylation enrichment (EPHB2) | phosphorylation enrichment (Fes) | phosphorylation enrichment (Hck) | phosphorylation enrichment (Jak2) | phosphorylation enrichment (EPHB1) | phosphorylation enrichment (FGFR1) | phosphorylation enrichment (Fyn)
1 | HVSISYDIPPT [GAB1_Y307] | 0.548 | 0.688 | 0.702 | 0.478 | 1.33 | 6.11 | 1.01 | 0.732 | 0.735 | 1.18 | 1.24 | 0.644 | 0.826 | 0.522 | 0.677 | 0.645
2 | TPTYPYLLPKS [PLD2_Y580] | 0.899 | 0.768 | 0.62 | 0.581 | 0.527 | 0.564 | 0.505 | 0.286 | 0.564 | 0.349 | 0.599 | 0.441 | 0.639 | 0.29 | 0.63 | 0.452
3 | CTTIYYNYMCN [TP53_Y234_H233Y] | 2.23 | 3.51 | 3.1 | 6.51 | 1.54 | 7.86 | 9.96 | 2.86 | 6.37 | 4.3 | 1.03 | 6.93 | 5.1 | 4.95 | 12.1 | 8.51
4 | GTAPSYGNPSS [CD19_Y378] | 0.556 | 0.907 | 0.45 | 0.496 | 0.517 | 0.432 | 0.494 | 0.299 | 0.589 | 0.362 | 0.56 | 0.336 | 0.594 | 0.407 | 0.38 | 0.358
5 | VQQVIYATRAL [MYH7_Y422_G425R] | 1.06 | 0.652 | 0.518 | 7.24 | 0.663 | 0.711 | 0.534 | 0.57 | 14.1 | 0.505 | 0.684 | 8.57 | 0.598 | 0.434 | 0.468 | 9.04
6 | VICRRYLVMQR [IL3RA_Y328] | 0.416 | 0.816 | 0.354 | 0.342 | 1.24 | 0.531 | 0.74 | 0.46 | 0.618 | 0.69 | 1.05 | 0.487 | 0.894 | 0.456 | 0.786 | 0.595
7 | VDFQPYRKHKF [TEX37_Y28_YF] | 0.87 | 0.991 | 0.844 | 0.377 | 0.553 | 0.472 | 0.587 | 0.463 | 0.595 | 0.32 | 0.639 | 0.451 | 0.479 | 0.403 | 0.401 | 0.45

More lines, main results first:

Row | SH2 binding enrichment (SHP2-C SH2) | SH2 binding enrichment (Grb2 SH2) | SH2 binding enrichment (c-Src SH2) | Sequence | phosphorylation enrichment (c-Src) | phosphorylation enrichment (AncSZ) | phosphorylation enrichment (MERTK) | phosphorylation enrichment (FGFR3) | phosphorylation enrichment (Fer (mouse)) | phosphorylation enrichment (c-Abl (mouse)) | phosphorylation enrichment (EPHB2) | phosphorylation enrichment (Fes) | phosphorylation enrichment (Hck) | phosphorylation enrichment (Jak2) | phosphorylation enrichment (EPHB1) | phosphorylation enrichment (FGFR1) | phosphorylation enrichment (Fyn)
8 | 0.721 | 0.885 | 0.589 | CTNPQYLAAGS [RABL3_Y185_R184Q] | 0.409 | 0.724 | 0.424 | 0.609 | 0.47 | 0.602 | 0.505 | 0.849 | 0.505 | 0.778 | 0.487 | 0.465 | 0.537
9 | 0.613 | 0.744 | 0.668 | RSFSPYDFQPC [TNS1_Y796_YF] | 5.06 | 1.5 | 1.69 | 0.788 | 0.822 | 1.18 | 0.929 | 1.29 | 0.959 | 1.28 | 0.672 | 0.66 | 5.66
10 | 0.652 | 0.796 | 0.518 | FDSPFYRDSLP [TSC1_Y508] | 0.451 | 0.703 | 0.409 | 0.484 | 0.497 | 0.47 | 0.479 | 0.68 | 0.47 | 0.594 | 0.314 | 0.446 | 0.454
11 | 0.67 | 0.764 | 0.422 | LSQQVYRVNLS [FAT4_Y480_F475L] | 0.836 | 0.821 | 0.792 | 0.631 | 0.572 | 0.637 | 0.622 | 0.751 | 0.521 | 0.647 | 0.532 | 0.428 | 0.616
12 | 0.76 | 0.879 | 0.567 | MKKMHYVDPDR [ST3GAL5_Y99_H104R] | 0.322 | 0.407 | 0.294 | 0.521 | 0.346 | 0.436 | 0.388 | 0.495 | 0.349 | 0.534 | 0.321 | 0.331 | 0.395
13 | 0.9 | 1.15 | 1.19 | MALDIYRASYY [ALK_Y1278_R1275L] | 1.76 | 0.874 | 0.674 | 0.713 | 0.434 | 2.99 | 0.564 | 0.911 | 1.57 | 0.86 | 0.594 | 0.655 | 0.974
14 | 0.866 | 1.02 | 1.23 | NARGLYYKLHN [GATA2_Y376_C373R] | 0.695 | 1.11 | 2.59 | 1.02 | 0.496 | 0.874 | 0.586 | 0.975 | 0.954 | 2.12 | 0.595 | 1.08 | 0.572
15 | 0.889 | 0.8 | 0.442 | LEKRAYICAHP [ACAD9_Y611] | 0.462 | 0.943 | 0.479 | 0.616 | 0.456 | 0.638 | 0.455 | 0.969 | 0.476 | 0.818 | 0.535 | 0.506 | 0.457
16 | 0.562 | 0.626 | 0.523 | FSNKLYFQLEQ [PDPR_Y109_YF] | 0.621 | 1.35 | 1.64 | 2.7 | 0.661 | 0.796 | 0.664 | 1.19 | 0.694 | 1.49 | 0.849 | 3.05 | 0.636
17 | 0.642 | 0.753 | 0.47 | TDGIAYEFRVI | 0.527 | 1.46 | 0.495 | 0.852 | 0.843 | 0.854 | 0.603 | 1.34 | 0.655 | 1.32 | 0.659 | 0.507 | 0.514
